Assay results taken from the RNAGym collection of RNA variant scans (doi:10.7554/elife.80360).

B1: Hammerhead Ribozyme (parent)
chain: ACCGGAUGUGCUUUCCGGUCUGAUGAGUCCGUGAGGACGAAACAG

Variants of: B1
Assay: self-cleavage, relative activity (ratio to wild type); higher = more cleavage; co-transcriptional

Variant	self-cleavage
U14A C38A	0.54
U12G G35U	0.583
G25A C30G	0.305
U28G	0.873
U32C A37C	0.803
G25U G39A	0.318
G33A C43G	0.371
U14C C29A	0.461
C15U C20U	0.627
G4U C43G	0.295
U12C U28A	0.487
C2G C11U	0.32
G18A G22C	0.417
C29G G33U	0.664
G4C A26G	0.276
C3A U28A	0.311
G5C C38A	0.264
U21C C43G	0.415
C2U A6G	0.927
A6U G18U	0.344
C16G U32C	0.717
G10A C30A	1.01
U13C G33A	1.37
U21C A40C	0.393

Variant	self-cleavage
C20U U21C	0.531
A1G C30G	1.26
A1G C30U	1.84
U9A C11U	0.572
G22U U32C	0.272
C3U C11U	0.504
C2U G22A	0.341
G5A U24C	1.43
U14C G36U	0.455
G31C C43U	0.436
U7C U13C	1.4
A6U A41G	0.289
U7G A44U	0.422
U14C U32G	0.546
U14C U32C	0.61
C2U C11U	0.739
C11U C30G	0.714
U19C C30A	0.416
A6C U9C	0.486
A6C U9A	0.479
G25A C38G	0.33
U7G C15A	0.89
U28C A40C	0.44
G8U U19G	0.369

Variant	self-cleavage
C20U G27U	0.332
G18U U32C	0.857
C3A U9G	0.327
C11U C20U	0.544
G33A A37C	1.03
U14A G25U	0.297
G8A U28A	0.738
U14A U19G	0.356
U14A G31C	1.01
G31U A41U	0.324
G31U G39C	0.474
U24C A42G	0.228
G5U G10C	0.708
A26U C38A	0.6
C3G U24G	0.44
U9C G35C	0.498
C16A G25C	0.372
U13C G39C	0.471
C30U G39U	0.365
U7G C30A	1.21
G22U G45U	0.428
G17A G31C	0.652
G33C G36C	0.451
C16G A26G	0.289

Variant	self-cleavage
U19G C20U	0.306
C15A C16A	0.869
G8C C15U	1.26
C16U C20U	0.651
G5A A42G	0.387
U21G G31A	0.797
G31A A40G	0.417
C2A G31C	0.66
A26C G31U	0.727
G5A U19A	0.382
C2G C30G	0.237
U9G G22A	0.321
A6U U24A	0.494
G22A C29U	0.279
A40G	0.4
G33C	0.997
G33U	0.977
U21C A34C	0.316
G5C C16U	0.883
G17A A34G	0.56
A1U G36C	0.328
U14C G31C	0.816
G10C C43U	0.524
G5U G17U	0.351

Variant	self-cleavage
G25U A26G	0.298
G10U U32G	0.758
A26C C38A	0.657
C16A A40G	0.297
G25A G45U	0.45
G4C U19C	0.297
C29A A44G	0.765
G18C	0.62
C16G A44U	0.335
C16G A44C	0.373
G17A U24C	0.88
U13G U32G	0.74
A6G G36C	0.351
U9C A40C	0.633
U9C A40U	0.406
A1C A37C	0.404
G27C A40G	0.297
G31U	0.966
G18U U21G	0.426
A6U A40U	0.351
A26C G45A	0.304
U24C C30U	1.14
U24C C30A	0.904
G8U G22U	0.348

Variant	self-cleavage
G35A A44U	0.46
G35A A44G	0.837
G27A C38A	0.871
G39A A41U	0.293
G33U G35C	0.964
G10C U24A	0.811
G5U C16A	1.11
G27U A34U	0.382
G10C A37C	1.21
U13A A44C	0.619
C2G U7G	0.364
U28A A44U	0.402
G22U A40U	0.332
G4A A23C	0.337
G4C C16G	1.35
G22C G27A	0.359
A6C A44U	0.36
U7C C30G	1.09
C30G C38U	0.797
U24C G25U	0.305
C11G G27U	0.527
C29U U32G	1.06
C2G C16U	0.299
G18C C38U	0.453

Variant	self-cleavage
G17C A26G	0.353
C2A C20G	0.288
G18U G35U	0.532
A37G G45U	0.567
C11G U13A	1.21
A41G G45A	0.25
U19G U21A	0.323
G25U G35A	0.282
U14G A44C	0.681
U14G A44G	1.32
A6U U14G	0.624
A6U U14C	1.07
U12A A34G	0.904
A6C A23G	0.306
U9A A37U	0.593
G27A G45U	0.472
A41U A42C	0.271
C15A G27A	0.589
C15G A41G	0.431
C20G G33A	0.333
U28C G35C	0.534
C2A G36C	0.307
U13C C38A	0.601
